The data set deals with the molecule itself. Kind of data set: unfolding kinetics by CD.

B1: Human C6A/C111S SOD (Cu, Zn superoxide dismutase) (enzyme)
chain: not shown
Turning to B1, the koff (as a rule, the first-order rate constant of dissociation) amounted to 0.000381 s⁻¹.
